B1: CLIP-170 CG1 fragment (58-140), P30622 K98E (protein)
chain: FRVGERVWVNGNKPGFIQFLGETQFAPGQWAGIVLDEPIGENDGSVAGVRYFQCEPLKGIFTRPSKLTRKVQAEDEANGLQTT
B2: CLIP-170 CG1 fragment (58-140), P30622 K98E; N99D (protein)
chain: FRVGERVWVNGNKPGFIQFLGETQFAPGQWAGIVLDEPIGEDDGSVAGVRYFQCEPLKGIFTRPSKLTRKVQAEDEANGLQTT
B3: CLIP-170 CG1 fragment (58-140), P30622 K123A (protein)
chain: FRVGERVWVNGNKPGFIQFLGETQFAPGQWAGIVLDEPIGKNDGSVAGVRYFQCEPLKGIFTRPSALTRKVQAEDEANGLQTT
B4: CLIP-170 CG2 fragment (206-288), P30622 K238A (protein)
chain: KKGERELKIGDRVLVGGTKAGVVRFLGETDFAAGEWCGVELDEPLGKNDGAVAGTRYFQCQPKYGLFAPVHKVTKIGFPSTTP
B5: CLIP-170 CG2 fragment (206-288), P30622 K277A (protein)
chain: KKGERELKIGDRVLVGGTKAGVVRFLGETDFAKGEWCGVELDEPLGKNDGAVAGTRYFQCQPKYGLFAPVHAVTKIGFPSTTP
B6: CLIP-170 CG2 fragment (206-288), P30622 N253A (protein)
chain: KKGERELKIGDRVLVGGTKAGVVRFLGETDFAKGEWCGVELDEPLGKADGAVAGTRYFQCQPKYGLFAPVHKVTKIGFPSTTP
B7: CLIP-170 CG2 fragment (206-288), P30622 K252A (protein)
chain: KKGERELKIGDRVLVGGTKAGVVRFLGETDFAKGEWCGVELDEPLGANDGAVAGTRYFQCQPKYGLFAPVHKVTKIGFPSTTP
B8: CLIP-170 CG2 fragment (206-288), P30622 K252E; N253D (protein)
chain: KKGERELKIGDRVLVGGTKAGVVRFLGETDFAKGEWCGVELDEPLGEDDGAVAGTRYFQCQPKYGLFAPVHKVTKIGFPSTTP
B9: CLIP-170 CG2 fragment (206-288), P30622 K224A (protein)
chain: KKGERELKIGDRVLVGGTAAGVVRFLGETDFAKGEWCGVELDEPLGKNDGAVAGTRYFQCQPKYGLFAPVHKVTKIGFPSTTP

In the first assay the target is taxol-stabilized microtubules polymerized from porcine brain tubulin, P02550. The experiment in a line: MT-binding assay (cosedimentation). Conditions: chain shown with the change; 5 μM CG1 mutant, […] taxol–MTs; parent: est. 1.0; read off a plot.
Chain of taxol-stabilized microtubules polymerized from porcine brain tubulin, P02550 (P02550 whole entry, chain 1 of 2): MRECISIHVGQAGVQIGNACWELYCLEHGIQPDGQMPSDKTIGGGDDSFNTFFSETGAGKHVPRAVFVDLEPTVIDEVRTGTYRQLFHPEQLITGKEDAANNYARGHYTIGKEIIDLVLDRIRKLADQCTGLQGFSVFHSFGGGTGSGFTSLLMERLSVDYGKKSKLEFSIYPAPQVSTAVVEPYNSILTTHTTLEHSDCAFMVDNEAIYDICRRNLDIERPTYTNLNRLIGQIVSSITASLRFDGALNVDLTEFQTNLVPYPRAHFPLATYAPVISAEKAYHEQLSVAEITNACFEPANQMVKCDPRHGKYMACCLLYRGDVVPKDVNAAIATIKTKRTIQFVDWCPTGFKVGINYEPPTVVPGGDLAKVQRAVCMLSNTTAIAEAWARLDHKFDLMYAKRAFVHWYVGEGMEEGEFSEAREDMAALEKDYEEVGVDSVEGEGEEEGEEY
Chain of taxol-stabilized microtubules polymerized from porcine brain tubulin, P02550 (chain, as listed by the source, chain 2 of 2): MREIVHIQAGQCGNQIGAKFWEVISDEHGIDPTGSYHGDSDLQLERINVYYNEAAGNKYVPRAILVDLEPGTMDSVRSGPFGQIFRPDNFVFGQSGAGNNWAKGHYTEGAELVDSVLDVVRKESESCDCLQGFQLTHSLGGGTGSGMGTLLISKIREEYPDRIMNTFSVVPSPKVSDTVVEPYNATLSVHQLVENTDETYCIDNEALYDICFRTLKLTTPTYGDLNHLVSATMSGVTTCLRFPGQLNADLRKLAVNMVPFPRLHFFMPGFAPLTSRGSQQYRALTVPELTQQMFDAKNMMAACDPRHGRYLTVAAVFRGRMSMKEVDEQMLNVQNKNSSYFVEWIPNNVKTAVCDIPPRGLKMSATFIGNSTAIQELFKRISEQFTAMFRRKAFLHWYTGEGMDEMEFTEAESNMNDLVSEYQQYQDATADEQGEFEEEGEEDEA
On to B1, for which the ratio to parent stood at 0.28. As to B2, the ratio to parent worked out at 0.42.

For the molecule B3, the ratio to parent was determined as 0.52.

Still in this assay, the particulars now being: chain shown with the change; 5 μM CG2 mutant, […] taxol–MTs; parent: est. 1.0; read off a plot.
On to B4, for which the ratio to parent came to 0.97.

On to B5, for which the ratio to parent turned out to be 0.75. As for B6, the ratio to parent was determined as 0.8.

Take B7: the ratio to parent was 0.28.

Consider B8, for which the ratio to parent was 0.23. On the same count and under the same terms, then B9, with 0.4.
